{"source": "paper PMC3522304", "biological_target": "hematopoietic form of CD44 (CD44-H) fused to CFP or YFP (human) (UniProt P16070)", "assay": "FRET or BRET", "data": [{"substance": "hematopoietic form of CD44 (CD44-H) fused to CFP or YFP (from UniProt P16070-12 21-361) (receptor)", "values": [{"measurement": "FRET efficiency (E) with nHA followed by oHA", "result": -15.3, "unit": "%"}]}]}
